For two substances, K0.5 results are on record in publication PMC3965691.

The experiment addresses GST-Pin1 (human Pin1, full length, fused to GST) (human) (UniProt Q13526). The experiment can be described thus: pull-down.

Sequence of GST-Pin1 (human Pin1, full length, fused to GST) (human) (Q13526 whole entry, the tested form may be a part): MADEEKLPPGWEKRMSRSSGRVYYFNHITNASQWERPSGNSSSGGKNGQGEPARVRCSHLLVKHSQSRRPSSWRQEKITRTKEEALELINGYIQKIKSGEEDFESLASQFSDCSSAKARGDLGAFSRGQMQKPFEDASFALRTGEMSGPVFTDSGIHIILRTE

The substance “His6-XI-2 (Xenopus phosphatase inhibitor-2) (natural protein)” displayed a K0.5 of 0.3 µM.

Substance “His6-DI-2 (Drosophila phosphatase inhibitor-2) (natural protein)” displayed a K0.5 of 0.3 µM.
